Assay: label from the status in PepcDB records

| Sequence | protein production |
| --- | --- |
| MGLNIKPLVVSVLGSVLLAGCATAPPKQQDNLCEIFREKSGWYDDAKYMEKEWGTPIHVAMAIIKQESSFRHDAKPPKDYVLGFIPWGRVSSAYGYAQAQDPAWDDFQDSTGQGGSRSNFDDSIMFVGWYTHETRRQLGISLWDPYNQYLAYHEGRGGYKRGTYKRKPSLMKVARRVEQTAKTYGWQLKQCRQELEDNSSWFF | failed |
| MVQAWYMDESTADPRKPHRAQPDRPVSLEQLRTLGVLYWKLDADKYENDPELEKIRKMRNYSWMDIITICKDTLPNYEEKIKMFFEEHLHLDEEIRYILEGSGYFDVRDKEDKWIRISMEKGDMITLPAGIYHRFTLDEKNYVKAMRLFVGEPVWTPYNRPADHFDARVQYMSFLEGTA | not failed |
| MADDDHIEAVLARLSRPQKLALVRGATDPEGTATGYLSGVEEAGIPPFRLVDGPLGIRAEGQRATAFPASIATAATFDPDLARQQGAAMGREAAALGQDALLAPGVNIIRVPHCGRNFEYLSEDPVHAGAVGAGLIDGIQSADVVATVKHFVANNQETHRTTVSTEVDERTLRELYLPPFRSAVDAGVGSVMTAYNRVNGTHMSDHGRLVGDVLKSEWGFNGYVVSDWYGLESTVGAANAGMDVEMPGVAAPGAAEAANSDTADDAEEFEWPDGIPDATRAGLFGDPLVEAIDSGEVPAERLDDMVRRVLGQMDRFGRLDGSRTAAEDGASDDQAGELDSQRHRDIAADVAARGTVLLDNDGVLPLADGADVAVIGPNIDEPKLGGGGSSETTPVHSVTPVAGIESRAEGAVTTAFGVPQIESVSLFDLLPFVGEDDDTDGTAADIAQQDPSLDDAVDAAAAADVAVVFVRDATTEARDRDSLALPGQQDDLVSAVAATNENTVVVVRSGGPVELPWREDVAAVLEQWYPGQADGDAAAAVLYGDRDPSGRLPVTFAPEGEYPTAGAERRYPGVDDEVHYDEDVFIGYRHFDDEDADPTYPFGHGHSYATFEYGDAEITGEWTVAVPVKNAADRPGREVIQAYVRPPSVDGVDRPRRELAGFEAVQLDADEQKTVALTLDDLAFSRYDPNSGWTVDTGTYTVEIGRSSRDIRTTVPVDR | failed |
| MKRSEKKSMSSALKNGIMERTQPEKVVQMQGTADLSTSKLGTKKYWDELYALELENFRRNPQDTGDCWFSDSDAEQKMIDFLVDNIGAYRISENASVVDLGTGNGHMLFELHQTEFQGKLVGIDYSEESVKLASNIAEATGVDNFISFQQADIFSGDWKPGKYDIVLDKGTLDAISLSGMKINGKLDVVDVYAGVVERILKKDGIFLITSCNFTQDELVKIIETDNLKMWKTIKYPVFQFGGVQGATICSVAFVKQN | failed |
| MKDFIRYTKKRNLSLNTIRTYESVLKHYEPVLDSWIKIRNKIINSNFKPRTIHLHKNVLLSFFEFKKLKRYLQNLKLLKLPQIEMKYFDVISKNNLYKKTDILDDDSLEIKKYKTIIRFLFETGIRAHELFFLESINNRLYVLGKGNKKRQIFFVKQTFEQLQKFYENLKGFETTKTLRLYIKKIIGKNFTPHSLRRSFATFMLIKGANPKTVMLQMGHANIQTTFSYLNLNEQTNRRIYNKIMYQNDAE | failed |
| MFAHIGEDYVVNSSELLLIMSYDIFMSSEDNLRILESLKNEDRLVVINDDLKKSIIILEIDGRLYAIVSPVSSTTIAKRFLNFNYYVDNYLDESLEHHHHHH | not failed |
| SHPCFVQGRPELLSQIKRKQSARTVEDKQVNEQTQQNLEVVMAEMRAMREKAKNMEDKMNKLTKENRDMWTQMGSMRQQHARQQQYFKKLLHFLVSVMQPGLSKRVAKRGVLEIDFCAANGTAGPNSKRARMNSEEGPYKDVCDLLESLQRETQEPFSRRFTNNEGPLISEVTDEFGNSPVGRGSAQDLFGDTFGAQSSRYSDGGATSSREQSPHPIISQPQSNSAGAHGANEQKPDDMYMGSGPLTHENIHRGISALKRDYQGASPASGGPSTSSSAPSGAGAGARMAQKRAAPYKNATRQMAQPQQDYSGGFVNNYSGFMPSDPSMIPYQPSHQYLQPHQKLMAIEDQHHPTTSTSSTNADPHQNLYSPTLGLSPSFDRQLSQELQEYFTGTDTSLESFRDLVSNHNWDDFGNNVPLDDDEEGSEDPLRQLALENAPETSNYDGAEDLLFDNEQQYPENGFDVPDPNYLPLADEEIFPHSPALRTPSPS | failed |
| LAAESQADYLGFIFAESKRKVSPEDVKKWLNQVRVEKQVAGVFVNESIETMSRIAKSLKLDVIQLHGDEKPADVAALRKLTGCEIWKALHHQDNTTQEIARFKDNVDGFVIDSSVKGSRGGTGVAFSWDCVPEYQQAAIGKRCFIAGGVNPDSITRLLKWQPEGIDLASGIEKNGQKDQNLMRLLEERMNRYVSISE | failed |

From a protein production outcome set (Wang et al. 2014)
